Data as given in publication PMC8958347.
pKd: −log10 of the molar value.

Legend:
[1] = molecular target: Dil labelled LDL (low-density lipoprotein); experiment: MST; purified LDLR^Q722* or wild-type LDLR with Dil labelled LDL; Kd model; three replicates
[2] = molecular target: Dil labelled LDL (low-density lipoprotein)
[3] = molecular target: Dil labelled LDL (low-density lipoprotein); experiment: MST; sEV^Ad-LDLR-Q722* with Dil-LDL; Kd model; pH 7.4
[4] = molecular target: Dil labelled LDL (low-density lipoprotein); experiment: MST; sEV (isolated from supernatant of infected HepG2) with Dil-LDL; Kd model; pH not stated
[5] = molecular target: Dil labelled LDL (low-density lipoprotein); experiment: MST; sEV^Ad-LDLR-Q722* with Dil-LDL; Kd model; pH 5.5

Row | pKd [1] | uptake of Dil-LDL by Ldlr–/– primary hepatocytes (confocal fluorescence intensity), sEV^Ad-LDLR-Q722* group against the sEV^Ad-LDLR-WT group [2] [fold] | uptake of Dil-LDL by Ldlr–/– primary hepatocytes (confocal fluorescence intensity), sEV^Ad-LDLR-Q722* group against the sEV^Ad-control group [2] [fold] | pKd [3] | pKd [4] | pKd [5] | Substance
1 | 5.15 | – | – | – | – | – | wild-type LDLR (N-terminal residues 1-788) (from UniProt P01130 22-788) (domain or fragment)
2 | 5.10 | – | – | – | – | – | LDLR^Q722* (truncated soluble LDLR, 1-722 amino acids), purified (from UniProt P01130 22-722) (domain or fragment)
3 | – | 3.13 | 2.68 | 5.30 | 7.92 | 7.89 | LDLR^Q722* attached to the surface of small extracellular vesicles (sEV^Ad-LDLR-Q722*) (from UniProt P01130 22-722) (domain or fragment)
